These results are taken from paper PMC5001721, “Reconstitution of Protein Translation of Mycobacterium Reveals Functional Conservation and Divergence with the Gram-Negative Bacterium Escherichia coli” (PLoS ONE, 2016).

For this test, the target named is T1, M. tuberculosis elongation factor Ts (EF-Ts) with an N-terminal 6xHis-tag and linker (M. tuberculosis, UniProt P9WNM1 1-271).
T1 sequence: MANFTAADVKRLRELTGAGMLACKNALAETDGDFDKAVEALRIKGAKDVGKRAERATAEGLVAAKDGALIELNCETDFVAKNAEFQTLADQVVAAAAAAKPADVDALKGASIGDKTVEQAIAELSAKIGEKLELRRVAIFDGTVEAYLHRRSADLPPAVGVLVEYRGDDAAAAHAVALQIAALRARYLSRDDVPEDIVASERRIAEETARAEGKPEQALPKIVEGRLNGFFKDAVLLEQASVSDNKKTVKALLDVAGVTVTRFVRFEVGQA
The test is described as follows: affinity purification with mass spectrometry. The settings on record: partners not purified.

B1: M. tuberculosis elongation factor Tu (EF-Tu) (natural protein)
chain: not shown
Regarding B1, the “stoichiometry N” value was 1.
